Data published in patent US10457929B2.
Where two headings read alike, the source gives them in different places.

Experiments:
[1] = molecular target: peptic-tryptic-pancreatinic digest of wheat gliadin
[2] = molecular target: peptic-tryptic-pancreatinic digest of wheat gliadin; remark: listed apart in the source
[3] = molecular target: peptic-tryptic-pancreatinic digest of wheat gliadin; remark: listed apart in the source

Row | Substance | Protection Index (%) in RLL assay [1] [%] | other results
1 | pig intestinal enzyme extract (pool or library) | 61 | –
2 | crude caricain (pool or library) | 71 | –
3 | Combination (1:1) of pig intestinal extract and crude caricain (pool or library) | 92 | –
4 | caricain (EC 3.4.22.30) (from UniProt P10056) (enzyme) | – | Protection offered against gliadin in RLL Assay [2]: 32.3%
5 | Fraction 4 from CM Sephadex C-50 ion exchange chromatography of papaya latex (pool or library) | – | Protection Index (%) in RLL assay [3]: 84%
